In paper PMC10838372 (Journal of inherited metabolic disease, 2023):
Positions count from the first letter of the chain named. In names and notes the source's numbering stands.

B1: dihydroorotase (DHO) domain of human CAD, wild type (domain or fragment, UniProt P27708 1456-1846, looked up)
chain: MTSQKLVRLPGLIDVHVHLREPGGTHKEDFASGTAAALAGGITMVCAMPNTRPPIIDAPALALAQKLAEAGARCDFALFLGASSENAGTLGTVAGSAAGLKLYLNETFSELRLDSVVQWMEHFETWPSHLPIVAHAEQQTVAAVLMVAQLTQRSVHICHVARKEEILLIKAAKARGLPVTCEVAPHHLFLSHDDLERLGPGKGEVRPELGSRQDVEALWENMAVIDCFASDHAPHTLEEKCGSRPPPGFPGLETMLPLLLTAVSEGRLSLDDLLQRLHHNPRRIFHLPPQEDTYVEVDLEHEWTIPSHMPFSKAHWTPFEGQKVKGTVRRVVLRGEVAYIDGQVLVPPGYGQDVRKWPQGAVPQLPPSAPATSEMTTTPERPRRGIPGLPD
modifications: carboxylated lysine (KCX) at K1556
B2: DHO domain of human CAD, variant R1617Q (domain or fragment, UniProt P27708 1456-1846, looked up)
chain: B1 chain with R162Q
B3: DHO domain of human CAD, variant R1475Q (domain or fragment, UniProt P27708 1456-1846, looked up)
chain: B1 chain with R20Q
B4: DHO domain of human CAD, variant R1810Q (domain or fragment, UniProt P27708 1456-1846, looked up)
chain: B1 chain with R355Q
B5: DHO domain of human CAD, variant K1556T (domain or fragment, UniProt P27708 1456-1846, looked up)
chain: B1 chain with K101T
B6: DHO domain of human CAD, variant R1722W (domain or fragment, UniProt P27708 1456-1846, looked up)
chain: B1 chain with R267W
B7: DHO domain of human CAD, variant K1482M (domain or fragment, UniProt P27708 1456-1846, looked up)
chain: B1 chain with K27M
B8: DHO domain of human CAD, variant R1785C (domain or fragment, UniProt P27708 1456-1846, looked up)
chain: B1 chain with R330C
B9: DHO domain of human CAD, variant R1789Q (domain or fragment, UniProt P27708 1456-1846, looked up)
chain: B1 chain with R334Q

Target: the molecule itself
Experiment: SEC

Protein	stoichiometry N
B1	2
B2	2
B3	2
B4	2
B5	2
B6	2
B7	2
B8	2
B9	2
